Reference: patent publication US6458943 (INSTITUT NATIONAL DE LA SANTE ET DE LA RECHERCHE MEDICALE, dated 2002)

Columns and labels:
[1] = target: T1, eukaryotic initiation factor 4AII library interactor (pAD-GAL4 construct, DNA Database of Japan accession no. … (human, UniProt P04386 761-881; Q14240 1-407, limits assumed); test: yeast two-hybrid, retransfection of Hf7c
T1 construct: False positive of the Hf7c screen
Protocol: (§1) Transformants were plated onto solid SD/-His-Trp-Leu (incorporating 35 mM 3-AT in the case of Y190 transformants) and incubated for up to 14 days at 30° C. After 3 initial days of growth, plates were inspected daily, and His+ colonies were transferred to SD/-His-Trp-Leu +0.07 M potassium phosphate pH 7+40 µg/ml X-gal plates which incorporated 35 mM 3-AT in the case of Y190 co-transformants. Colonies which remained His+, and in the case of Y190 co-transformants, were also lacZ+, were re-streaked onto fresh plates to check that all colonies were of uniform phenotype. After 6 days incubation at 30° C., yeast colonies were directly harvested, and plasmid DNA was isolated and used to transfect XL1 Blue. Mini-preparations of plasmid DNA were performed for at least 5 XL1 Blue colonies per transfection, with the results of restriction digests differentiating potential interactors from bait plasmids. […] Phenotypes of resulting co-transfectants were assayed quantitatively and/or qualitatively as described above.

[2] = target: T2, histidyl t-RNA synthetase library interactor (pAD-GAL4 construct, EBML accession no. Z 11518) (human, UniProt P04386 761-881; P12081 2-509, limits assumed); test: yeast two-hybrid, retransfection of Hf7c
T2 construct: False positive of the Hf7c screen
T2 sequence (looked up): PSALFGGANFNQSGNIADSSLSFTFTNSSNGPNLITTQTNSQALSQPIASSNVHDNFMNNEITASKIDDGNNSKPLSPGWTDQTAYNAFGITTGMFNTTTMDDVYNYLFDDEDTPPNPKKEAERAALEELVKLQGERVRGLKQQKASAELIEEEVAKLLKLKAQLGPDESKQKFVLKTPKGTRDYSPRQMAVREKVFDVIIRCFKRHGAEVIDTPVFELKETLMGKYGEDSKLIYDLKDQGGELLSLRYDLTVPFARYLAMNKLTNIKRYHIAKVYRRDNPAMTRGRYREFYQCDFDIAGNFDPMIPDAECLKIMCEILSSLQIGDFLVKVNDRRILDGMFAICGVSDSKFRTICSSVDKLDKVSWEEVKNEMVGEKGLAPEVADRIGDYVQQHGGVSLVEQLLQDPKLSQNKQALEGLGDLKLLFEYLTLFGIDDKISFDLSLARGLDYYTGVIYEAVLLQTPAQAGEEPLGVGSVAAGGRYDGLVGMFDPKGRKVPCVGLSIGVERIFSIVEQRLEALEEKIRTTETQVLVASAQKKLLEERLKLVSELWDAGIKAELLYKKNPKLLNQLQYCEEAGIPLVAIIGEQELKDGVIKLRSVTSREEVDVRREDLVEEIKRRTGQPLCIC
Protocol: as §1

[3] = target: T3, RING10 proteasome subunit library interactor (pAD-GAL4 construct, GenBank accession no. X62598) (human, UniProt P04386 761-881; P28062 73-276, limits assumed); test: yeast two-hybrid, retransfection of Hf7c
T3 construct: False positive of the Hf7c screen
T3 sequence (looked up): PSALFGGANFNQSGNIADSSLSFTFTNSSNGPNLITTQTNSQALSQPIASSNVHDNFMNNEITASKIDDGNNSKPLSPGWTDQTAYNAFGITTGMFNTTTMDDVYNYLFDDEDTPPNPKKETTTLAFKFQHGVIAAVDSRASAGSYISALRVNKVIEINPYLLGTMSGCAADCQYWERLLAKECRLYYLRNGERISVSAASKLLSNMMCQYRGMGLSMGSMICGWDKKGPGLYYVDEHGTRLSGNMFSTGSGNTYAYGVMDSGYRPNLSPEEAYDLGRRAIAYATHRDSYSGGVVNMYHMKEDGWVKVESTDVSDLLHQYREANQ
Protocol: as §1

[4] = target: T4, hD53 interactor (GAL4 activation domain fusion, pACT2hD53) (human, UniProt P04386 768-881 (Saccharomyces cerevisiae entry)); test: yeast two-hybrid in Y190, β-galactosidase assay
T4 construct: range 768-881
T4 sequence: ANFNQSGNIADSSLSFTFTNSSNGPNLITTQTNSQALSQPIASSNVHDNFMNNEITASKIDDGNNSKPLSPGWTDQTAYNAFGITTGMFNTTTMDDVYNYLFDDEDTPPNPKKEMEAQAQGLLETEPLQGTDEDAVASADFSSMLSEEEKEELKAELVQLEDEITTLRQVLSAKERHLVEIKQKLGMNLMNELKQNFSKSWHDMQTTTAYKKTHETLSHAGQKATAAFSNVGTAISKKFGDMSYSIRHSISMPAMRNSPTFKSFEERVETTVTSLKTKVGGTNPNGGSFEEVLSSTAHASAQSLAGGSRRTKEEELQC
Protocol: Interactions between baits and interactors were assessed by qualitatively and/or quantitatively determining HIS3 and lacZ reporter gene activity in Y190 co-transfectants. Reporter gene activities were assessed qualitatively by observing the growth and color development of Y190 co-transfectants on solid SD media lacking His, Trp and Leu (SD/-His-Trp-Leu), and incorporating 0.07 M potassium phosphate pH 7, 35 mM 3-AT, and 40 µg/ml X-gal. For quantitative assessment of interactions, β-galactosidase activity was measured using the substrate o-nitrophenyl β-D-galactopyranoside (ONPG) in liquid cultures (SD/-His-Trp-Leu +35 mM 3-AT) of Y190 co-transfectants.

Measured: binding result

B1: mD52(95-185) bait (GAL4 DNA-binding domain fusion, pAS2-1mD52(95-185)) (other)
chain: MKLLSSIEQACDICRLKKLKCSKEKPKCAKCLKNNWECRYSPKTKRSPLTRAHLTEVESRLERLEQLFLLIFPREDLDMILKMDSLQDIKALLTGLFVQDNVNKDAVTDRLASVETDMPLTLRQHRISATSSSEESSNKGQRQLTVSAYKKTSETLSQAGQKASAAFSSVGSVITKKLEDVKNSPTFKSFEEKVENLKSKVGGAKPAGGDFGEVLNSTANATSTMTTEPPPEQMTESP
notes: also called C-terminal half of mD52
no binding: all assays above
